The target of the experiment is monoclonal anti-S1 antibody 1B7. The experiment can be described thus: competition RIA: 1B7 coated on plate, 125I-PT displaced by unlabelled toxin.

“PT-9K (from UniProt P04978 28-226; P04979 29-227; P0A3R5 43-152; P04981 35-133)” had a Ka of 8.9e+08 M⁻¹.
